± gives the uncertainty stated by the source.
Assay: protein stability index of a GFP-peptide fusion (yeast GPS) (PSI 1-4); higher = more stable; sorted into four equal gates, so the index is relative within each strain
How it was run: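 Yeast carrying a pooled library were grown to mid-log phase in leucine-free medium. Each library plasmid expresses Cherry and has a tiled 17-residue yeast protein peptide fused downstream of GFP. Cells were sorted into four equal gates by GFP/Cherry ratio, and plasmids from each gate were PCR-amplified, Illumina-sequenced and assigned to strains by barcode. Summing, across gates, the read frequency times the gate number gave each peptide's protein stability index.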

Sequence	protein stability index (doa10∆)	protein stability index (pdr5∆)	protein stability index (san1∆)	protein stability index (ubr1∆)
KSVEKTMIKKTTLVTRR [SMC3]	3.17 ± 0.23	3.19 ± 0.12	2.91 ± 0.066	3.4 ± 0.2
GAETDELSMIMEHFSQQ [RPS12]	2.88 ± 0.088	3.25 ± 0.1	3.35 ± 0.059	3.23 ± 0.089
CVEWRLPEIAKEIYTTL [YJR042W/NUP85]	1.4 ± 0.075	1.46 ± 0.071	1.52 ± 0.11	1.8 ± 0.066
PIAASTDLPIETAAMAS [RPN1]	1.48 ± 0.041	1.64 ± 0.052	1.53 ± 0.06	1.71 ± 0.058
LYNDADVLTLENIQEGT [CDC53]	3.18 ± 0.1	3.03 ± 0.087	3.17 ± 0.044	3.2 ± 0.046
NPTKSKEILDNILPFLW [ECM29]	2.26 ± 0.085	2.97 ± 0.1	2.8 ± 0.23	2.61 ± 0.085
MDIAERIAVLHQKTKTL [YGL172W/NUP49]	2.14 ± 0.076	1.67 ± 0.058	1.81 ± 0.11	1.51 ± 0.067
ERLMSRPFGVALLIAGH [PUP2]	2.81 ± 0.28	3.08 ± 0.11	2.74 ± 0.1	2.95 ± 0.081
TVAVLPPNWKYESATAS [RPS13]	1.63 ± 0.036	2.06 ± 0.037	2.07 ± 0.055	1.97 ± 0.028
TGALINNLEPRQTTSNT [RPN11]	3.12 ± 0.1	3.25 ± 0.15	2.62 ± 0.15	3.02 ± 0.076
QHLQQLKMQQQQQQQQQ [GAL11]	2.21 ± 0.077	2.23 ± 0.059	2.02 ± 0.12	2.09 ± 0.061
GDDEATEIISTLSNGLI [BRR2]	3.32 ± 0.099	3.1 ± 0.13	3.42 ± 0.096	3.11 ± 0.21
VQGMNDDIFIRYLTLLS [ECM29]	1.37 ± 0.053	1.39 ± 0.057	1.8 ± 0.14	1.15 ± 0.031
HGLKQLRDSLADKIVDE [NUT2]	3.11 ± 0.083	2.13 ± 0.077	1.52 ± 0.071	2.3 ± 0.055
YPDLCSIYDKWTDPNLK [RPN1]	2.69 ± 0.091	2.66 ± 0.072	2.21 ± 0.11	2.93 ± 0.085
NKLFTEPIKLEPVKEYT [YMR129W/POM152]	2.34 ± 0.05	2.39 ± 0.06	2.4 ± 0.084	2.4 ± 0.072
SGNIQLDEIIEIARQMR [RPL12A]	3.07 ± 0.12	3 ± 0.12	3.05 ± 0.08	3.35 ± 0.14
LPVKEFQIIDTLLPGLQ [RPS2]	2.35 ± 0.15	1.83 ± 0.059	1.95 ± 0.089	1.5 ± 0.063
DGHYIEENSQGNILDFN [REC8]	3.23 ± 0.11	2.67 ± 0.098	2.89 ± 0.065	2.81 ± 0.1
SIRRQDYINELSNSNRF [REC8]	2.82 ± 0.17	3.21 ± 0.12	3.4 ± 0.092	3.2 ± 0.12
RSRMLPTITLDDVYRPA [SNF5]	3.12 ± 0.081	3.43 ± 0.085	3.04 ± 0.075	3.06 ± 0.077
RMLLNLCKSATTKMWPT [BRR2]	1.47 ± 0.068	1.79 ± 0.1	1.7 ± 0.12	1.99 ± 0.069
HINKIPSNSTTTLHGPG [SRB8]	2.89 ± 0.059	3.17 ± 0.059	2.96 ± 0.052	3.11 ± 0.039
KLQGLYENIPIYATFLN [YDL116W/NUP84]	1.32 ± 0.063	1.25 ± 0.058	1.22 ± 0.14	1.13 ± 0.059
FDRHCNMVLENVKELWT [SMD2]	2.37 ± 0.081	2.38 ± 0.088	1.84 ± 0.1	2.03 ± 0.1
AEWSLVRIYSGLLKRGD [SNU114]	2.95 ± 0.093	3.27 ± 0.1	3.26 ± 0.079	3.29 ± 0.12
ITVHAPLLPIVEELMKK [SNU114]	2.38 ± 0.068	2.55 ± 0.054	2.52 ± 0.074	2.7 ± 0.055

Sequence	protein stability index (doa10∆)	protein stability index (pdr5∆)	protein stability index (san1∆)	protein stability index (ubr1∆)
SAAGNKAIPTFSFGKPF [YIL149C/MLP2]	2.73 ± 0.046	2.86 ± 0.055	2.96 ± 0.045	2.96 ± 0.034
PLIQNSMRTIMKANPAL [PRP8]	2.4 ± 0.08	2.58 ± 0.22	1.56 ± 0.3	2.25 ± 0.17
AAPLLALLRENQDSVKT [RPN2]	2.55 ± 0.18	3.23 ± 0.1	3 ± 0.15	2.6 ± 0.11
ISKLFLRGDSVIVVLKT [SMD2]	2.87 ± 0.16	2.89 ± 0.2	–	–
ALKDPQTDADRVKDPQW [RIP1]	3.26 ± 0.081	3.68 ± 0.23	3.18 ± 0.25	3.6 ± 0.16
NRVGLTLDNIDDINKAK [ARP9]	3.15 ± 0.056	2.93 ± 0.051	3.22 ± 0.045	2.43 ± 0.034
VYTQSNGKTRTLENTLK [RPS2]	3.45 ± 0.17	3.16 ± 0.1	3.24 ± 0.075	3.38 ± 0.07
AKQAKIRAGEFDVVLTT [SNF2]	3.56 ± 0.11	3.3 ± 0.13	2.57 ± 0.12	3.23 ± 0.11
MFTYSQETQHGNITRGL [RPN2]	3.28 ± 0.08	3.12 ± 0.12	3.13 ± 0.06	3.21 ± 0.046
EVALFSQKAKLMTFNAE [YLR335W/NUP2]	2.27 ± 0.08	1.47 ± 0.057	1.5 ± 0.1	1.4 ± 0.085
SPSERIEPLEINIQSFK [BRR2]	2.51 ± 0.064	2.53 ± 0.046	2.55 ± 0.047	1.97 ± 0.032
RIYDREPTVRIQAVFCL [YCG1]	2.47 ± 0.11	1.72 ± 0.15	1.61 ± 0.21	2.39 ± 0.1
TKGDSTPVQPDLSVTPQ [YAR002W/NUP60]	3.22 ± 0.036	3.16 ± 0.036	2.984 ± 0.028	3.098 ± 0.024
QQQQAAALANANNNINS [SWI1]	2.51 ± 0.058	2.3 ± 0.053	2.46 ± 0.047	2.65 ± 0.06
DFTQEDELRKQELISKA [ISW2]	3.11 ± 0.12	3.1 ± 0.076	3.03 ± 0.083	3.09 ± 0.09
MGKSAVIFVERATPATL [SRB2]	2.36 ± 0.14	1.31 ± 0.076	1.66 ± 0.2	1.31 ± 0.29
RNSTRSSGFNEDIVGAL [REC8]	–	3.58 ± 0.21	–	–
IVERETNWIIYPLWVMA [CSN12]	2.81 ± 0.19	3.42 ± 0.24	2.76 ± 0.24	–
SYSPTSPSYSPTSPNYS [RPO21]	2.88 ± 0.065	2.96 ± 0.056	2.84 ± 0.054	3.066 ± 0.028
DNMSEEQWLRQFEVSDD [SNF2]	3.46 ± 0.099	3.22 ± 0.094	3.16 ± 0.12	3.36 ± 0.079
TSASNTSMNGVHNTVAA [SNF5]	2.66 ± 0.042	2.86 ± 0.04	2.9 ± 0.051	2.9 ± 0.047
ISTACPRLDDVVVDTVE [SMC4]	3.51 ± 0.071	3.43 ± 0.094	3.3 ± 0.058	3.46 ± 0.093
GSSNKAVVQTVKGLLNT [YJL039C/NUP192]	3.27 ± 0.14	3.13 ± 0.11	2.59 ± 0.11	3.07 ± 0.098
GSKQADRMAKYLHIRDK [PGD1]	3.08 ± 0.12	3.3 ± 0.097	3.09 ± 0.057	3.14 ± 0.071
RVFRTRFQDGTSVVSIM [SMC2]	2.07 ± 0.099	1.3 ± 0.1	–	2.31 ± 0.087
RYIWRSLKDLSSLRNQE [RPN3]	2.77 ± 0.14	–	2.85 ± 0.094	–
GYKMIPGAKPLQVGDVV [FAS1]	2.43 ± 0.1	2.44 ± 0.1	2.37 ± 0.1	1.79 ± 0.14
